T1: human VEGF (hVEGF) (human, UniProt P15692 181-395)
T1 construct: also called VEGF-A
T1 sequence: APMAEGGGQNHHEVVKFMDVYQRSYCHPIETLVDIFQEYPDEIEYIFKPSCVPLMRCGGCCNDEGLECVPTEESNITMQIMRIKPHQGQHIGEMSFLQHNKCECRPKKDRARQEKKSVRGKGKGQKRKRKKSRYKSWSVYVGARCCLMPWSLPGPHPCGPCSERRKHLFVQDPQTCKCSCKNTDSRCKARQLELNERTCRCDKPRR

T2: VEGF (as used in the HUVEC migration assay) (Homo sapiens (Human), UniProt P15692 181-395)
T2 sequence: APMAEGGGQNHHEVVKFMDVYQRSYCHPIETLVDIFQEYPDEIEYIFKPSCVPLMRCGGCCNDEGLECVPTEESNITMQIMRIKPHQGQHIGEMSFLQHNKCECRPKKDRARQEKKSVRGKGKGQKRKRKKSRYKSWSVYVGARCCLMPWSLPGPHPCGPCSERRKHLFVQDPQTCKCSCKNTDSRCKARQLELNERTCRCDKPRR

B1: G6.31 LC-L73G (Fab, V domains shown)
VH: EVQLVESGGGLVQPGGSLRLSCAASGFTISDYWIHWVRQAPGKGLEWVAGITPAGGYTYYADSVKGRFTISADTSKNTAYLQMNSLRAEDTAVYYCARFVFFLPYAMDYWGQGTLVTVSS
VL: DIQMTQSPSSLSASVGDRVTITCRASQDVSTAVAWYQQKPGKAPKLLIYSASFLYSGVPSRFSGSGSGTDFTGTISSLQPEDFATYYCQQGYGNPFTFGQGTKVEIK
notes: Fab
B2: G6.31 LC-N94A (Fab, V domains shown)
VH: EVQLVESGGGLVQPGGSLRLSCAASGFTISDYWIHWVRQAPGKGLEWVAGITPAGGYTYYADSVKGRFTISADTSKNTAYLQMNSLRAEDTAVYYCARFVFFLPYAMDYWGQGTLVTVSS
VL: DIQMTQSPSSLSASVGDRVTITCRASQDVSTAVAWYQQKPGKAPKLLIYSASFLYSGVPSRFSGSGSGTDFTLTISSLQPEDFATYYCQQGYGAPFTFGQGTKVEIK
notes: Fab
B3: G6.31 LC-N94A.LC-F83A (Fab, V domains shown)
VH: EVQLVESGGGLVQPGGSLRLSCAASGFTISDYWIHWVRQAPGKGLEWVAGITPAGGYTYYADSVKGRFTISADTSKNTAYLQMNSLRAEDTAVYYCARFVFFLPYAMDYWGQGTLVTVSS
VL: DIQMTQSPSSLSASVGDRVTITCRASQDVSTAVAWYQQKPGKAPKLLIYSASFLYSGVPSRFSGSGSGTDFTLTISSLQPEDAATYYCQQGYGAPFTFGQGTKVEIK
notes: Fab; also called LC-F83A, LC-N94A; LCcombo5
B4: G6.31 LC-Q89T (Fab, V domains shown)
VH: EVQLVESGGGLVQPGGSLRLSCAASGFTISDYWIHWVRQAPGKGLEWVAGITPAGGYTYYADSVKGRFTISADTSKNTAYLQMNSLRAEDTAVYYCARFVFFLPYAMDYWGQGTLVTVSS
VL: DIQMTQSPSSLSASVGDRVTITCRASQDVSTAVAWYQQKPGKAPKLLIYSASFLYSGVPSRFSGSGSGTDFTLTISSLQPEDFATYYCTQGYGNPFTFGQGTKVEIK
notes: Fab
B5: G6.31 LC-S50M (Fab, V domains shown)
VH: EVQLVESGGGLVQPGGSLRLSCAASGFTISDYWIHWVRQAPGKGLEWVAGITPAGGYTYYADSVKGRFTISADTSKNTAYLQMNSLRAEDTAVYYCARFVFFLPYAMDYWGQGTLVTVSS
VL: DIQMTQSPSSLSASVGDRVTITCRASQDVSTAVAWYQQKPGKAPKLLIYMASFLYSGVPSRFSGSGSGTDFTLTISSLQPEDFATYYCQQGYGNPFTFGQGTKVEIK
notes: Fab
B6: G6.31 LC-Y36G (Fab, V domains shown)
VH: EVQLVESGGGLVQPGGSLRLSCAASGFTISDYWIHWVRQAPGKGLEWVAGITPAGGYTYYADSVKGRFTISADTSKNTAYLQMNSLRAEDTAVYYCARFVFFLPYAMDYWGQGTLVTVSS
VL: DIQMTQSPSSLSASVGDRVTITCRASQDVSTAVAWGQQKPGKAPKLLIYSASFLYSGVPSRFSGSGSGTDFTLTISSLQPEDFATYYCQQGYGNPFTFGQGTKVEIK
notes: Fab
B7: HA100K-G6.31 AARR (other)
VH: EVQLVESGGGLVQPGGSLRLSCAASGFTISDYWIHWVRQAPGKGLEWVAGITPAGGYTRYADSVKGRFTISADTSKNTAYLQMRSLRAEDTAVYYCARFVFFLPYAMDYWGQGTLVTVSS
VL: DIQMTQSPSSLSASVGDRVTITCRASQDVSTAVAWYQQKPGKAPKLLIYSASFLYSGVPSRFSGSGSGTDFTLTISSLQPEDAATYYCQQGYGAPFTFGQGTKVEIK
modifications: free hinge cysteine of the Fab-C heavy chain linked through maleimide to linear 100 kDa hyaluronic acid

Key:
human VEGF (hVEGF) [1] = target: T1, human VEGF (hVEGF); test: SPR single-cycle
human VEGF (hVEGF) [2] = target: T1, human VEGF (hVEGF); test: BIACORE SPR on immobilised hVEGF; label beside the mutation on the structure of the VEGF-bound G6 Fab (PDB 2FJG)
human VEGF (hVEGF) [3] = target: T1, human VEGF (hVEGF); test: SPR
[4] = target: T2, VEGF (as used in the HUVEC migration …); test: cell-based or functional assay
[5] = target: T2, VEGF (as used in the HUVEC migration …); test: cell-based or functional assay; remark: listed apart in the source
human VEGF (hVEGF) [6] = target: T1, human VEGF (hVEGF); test: SPR; remark: listed apart in the source
Excerpt: (§1) To determine the binding affinity of selected Fab variants, SPR measurement with a BIACORE® T200 instrument was used. Briefly, series S sensor chip CM5 was activated with 1-ethyl-3-(3-dimethylaminopropyl) carbodiimide (EDC) and N-hydroxysuccinimide (NHS) reagents according to the supplier's instructions, and human VEGF (hVEGF) was coupled to achieve 50-80 response units (RU), then following by blocking un-reacted groups with 1M ethanolamine.
(§2) Three-fold serial dilutions of Fab in HBS-P buffer (0.01 M HEPES pH 7.4, 0.15 M NaCl, 0.005% surfactant P20) from low (0.02 nM) to high (50 nM) were injected (flow rate: 30 μl/min). The binding responses on hVEGF were corrected by subtracting of RU from a blank flow cell. The sensorgram was recorded and subject to reference and buffer subtraction before evaluating by BIACORE® T200 Evaluation Software (version 2.0). Association rates (kₒₙ) and dissociation rates (koff) were calculated using a simple one-to-one Langmuir binding model. The equilibrium dissociation constant (Kd) was calculated as the ratio koff/kₒₙ.

human VEGF (hVEGF) [7] = target: T1, human VEGF (hVEGF); test: SPR; remark: listed apart in the source
Excerpt: as §1, §2

human VEGF (hVEGF) [8] = target: T1, human VEGF (hVEGF); test: SPR multiple-cycle
Excerpt: as §1, §2

human VEGF (hVEGF) [9] = target: T1, human VEGF (hVEGF); test: SPR; remark: listed apart in the source
Excerpt: as §1, §2

human VEGF (hVEGF) [10] = target: T1, human VEGF (hVEGF); test: SPR; remark: listed apart in the source
Excerpt: as §1, §2

human VEGF165 = human VEGF165 (human, UniProt P15692-4 27-191); test: cell-based or functional assay

Row | Binder | Fold difference (relative to G6.31) (human VEGF (hVEGF) [1]) | Kd (human VEGF (hVEGF) [1]) | koff (human VEGF (hVEGF) [1]) | kon (human VEGF (hVEGF) [1]) | fold change in binding affinity (Kd) compared to G6.31 (human VEGF (hVEGF) [2]) | also measured
1 | B1 | 1.4 fold | 1.09 nM | 0.000644 s⁻¹ | 589000 M⁻¹ s⁻¹ | 2 x | fold increase in affinity compared to wild-type G6.31 (human VEGF (hVEGF) [3]): ~1.6 fold
2 | B2 | 0.4 fold | 3.93 nM | 0.00131 s⁻¹ | 334000 M⁻¹ s⁻¹ |  | IC50 relative to G6.31, VEGF-induced HUVEC migration [4]: 5.2 fold; IC50 (read off the curve), VEGF-induced HUVEC migration [5]: ~7 nM; Kd (human VEGF (hVEGF) [6]): 1.06 nM; koff (human VEGF (hVEGF) [6]): 0.00169 s⁻¹; kon (human VEGF (hVEGF) [6]): 1.56e+06 M⁻¹ s⁻¹; Fold improved (relative to WT) (human VEGF (hVEGF) [7]): 0.5 fold; Kd (human VEGF (hVEGF) [7]): 1.06 nM; koff (human VEGF (hVEGF) [7]): 0.00169 s⁻¹; kon (human VEGF (hVEGF) [7]): 1.59e+06 M⁻¹ s⁻¹; Kd (human VEGF (hVEGF) [8]): 1.06 nM; koff (human VEGF (hVEGF) [8]): 0.00169 s⁻¹; kon (human VEGF (hVEGF) [8]): 1.59e+06 M⁻¹ s⁻¹
3 | B3 |  |  |  |  |  | IC50 relative to G6.31, VEGF-induced HUVEC migration [4]: 5.1 fold; Kd (human VEGF (hVEGF) [9]): 1.43 nM; koff (human VEGF (hVEGF) [9]): 0.000766 s⁻¹; kon (human VEGF (hVEGF) [9]): 537000 M⁻¹ s⁻¹; Kd (human VEGF (hVEGF) [6]): 1.71 nM; koff (human VEGF (hVEGF) [6]): 0.00111 s⁻¹; kon (human VEGF (hVEGF) [6]): 648000 M⁻¹ s⁻¹; Kd (human VEGF (hVEGF) [10]): 1.71 nM; koff (human VEGF (hVEGF) [10]): 0.00111 s⁻¹; kon (human VEGF (hVEGF) [10]): 648000 M⁻¹ s⁻¹
4 | B4 | 3.7 fold | 0.42 nM | 0.000493 s⁻¹ | 1.17e+06 M⁻¹ s⁻¹ | 4 x | 
5 | B5 | 1.2 fold | 1.31 nM | 0.000611 s⁻¹ | 467000 M⁻¹ s⁻¹ | 1 x | 
6 | B6 | 0.6 fold | 2.47 nM | 0.000558 s⁻¹ | 225000 M⁻¹ s⁻¹ | 0.5 x | 
7 | B7 |  |  |  |  |  | fold increase in potency against the unconjugated parent Fab, pKDR assay (human VEGF165): ~7 fold
